Results from patent publication US20030180306A1 (Pfizer, published 2003).

Target: T1, recombinant purified GDF-8 (UniProt O14793 267-375, limits assumed)
T1 sequence (looked up): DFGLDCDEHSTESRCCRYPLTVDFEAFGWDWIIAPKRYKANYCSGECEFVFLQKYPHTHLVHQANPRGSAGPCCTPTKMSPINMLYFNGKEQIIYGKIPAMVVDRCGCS
Assay: cell-based or functional assay

B1: mouse GASP1 cloned with a C-terminal V5-His tag (GASP1-V5-His) (other, not shown: small tags and cut ends)
chain: LPPIRYSHAGICPNDMNPNLWVDAQSTCKRECETDQECETYEKCCPNVCGTKSCVAARYMDVKGKKGPVGMPKEATCDHFMCLQQGSECDIWDGQPVCKCKDRCEKEPSFTCASDGLTYYNRCFMDAEACSKGITLSVVTCRYHFTWPNTSPPPPETTVHPTTASPETLGLDMAAPALLNHPVHQSVTVGETVSFLCDVVGRPRPELTWEKQLEDRENVVMRPNHVRGNVVVTNIAQLVIYNVQPQDAGIYTCTARNVAGVLRADFPLSVVRGGQARATSESSLNGTAFPATECLKPPDSEDCGEEQTRWHFDAQANNCLTFTFGHCHHNLNHFETYEACMLACMSGPLATCSLPALQGPCKAYVPRWAYNSQTGLCQSFVYGGCEGNGNNFESREACEESCPFPRGNQHCRACKPRQKLVTSFCRSDFVILGRVSELTEEQDSGRALVTVDEVLKDEKMGLKFLGREPLEVTLLHVDWTCPCPNVTVGETPLIIMGEVDGGMAMLRPDSFVGASSTRRVRKLREVMYKKTCDVLKDFLGLQ
In the case of B1, the “IC50 for inhibition of GDF-8 (20 ng/ml) in the (CAGA)12 luciferase reporter gene assay, RD cells, purified GASP1-V5-His” value is reported as roughly 3 nM.
